Laboratory results reported in patent publication US6783760.

Biological target: anti-VCAM-1.tTF coaguligand (anti-VCAM-1 antibody IgG covalently linked via SMPT to truncated tissue factor with an added N-terminal cysteine) (human) (UniProt P13726)
Assay: 125I-labeled 10H10 bound to anti-VCAM-1.tTF-treated IL-1α-activated bEnd.3 cells, gamma counting

Sequence of UniProt P13726 (P13726 other isoform, or with tags, fused parts or gaps): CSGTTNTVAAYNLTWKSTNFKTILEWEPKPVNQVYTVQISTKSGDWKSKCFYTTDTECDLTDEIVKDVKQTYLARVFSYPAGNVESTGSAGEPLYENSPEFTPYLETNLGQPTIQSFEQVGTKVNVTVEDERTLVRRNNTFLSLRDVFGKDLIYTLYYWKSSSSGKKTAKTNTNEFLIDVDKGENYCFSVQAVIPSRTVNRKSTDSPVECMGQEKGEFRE

anti-TF antibody bound to coaguligand-treated cells at saturation: 8.7 fmol | molecules of anti-TF antibody bound per cell at saturation (molecules of anti-TF antibody per cell): 540000
Substance: 10H10, mouse monoclonal antibody against human tissue factor
